Test results from patent US20230391863A1 (published 2023).

Key:
[1] = biological target: A109 (SEQ ID NOs: 39 & 17) (Homo sapiens (Human), UniProt P0DOX7 1-214); experiment: BLI (Octet RED96), affinity-purified antagonist captured on biosensor, ligand in solution
Experimental: (§1) In this example, the human ligand binding activities of several bifunctional antagonist molecules were measured by biolayer interferometry (BLI) using Octet RED96 (FortéBIO, Pall Corporation, USA). Binding analysis was performed by capturing the polypeptide bifunctional antagonists to biosensors. To measure the rate of association and dissociation, the bifunctional antagonists-captured biosensors were dipped in wells containing different concentrations of ligands (such as TNF-α, Activin A, Activin B, Activin AB, myostatin, and GDF-11) diluted in 1× kinetic buffer for 10 min followed by 10-20 min in 1× kinetic buffer. The bifunctional polypeptide antagonists-captured sensors were also submerged in wells containing 1× kinetic buffer to allow single reference subtraction in order to compensate for natural dissociation of the captured bifunctional antagonists. The binding sensorgrams were collected using the 8-channel detection mode on the biosensor. Data were acquired and analyzed using the FortéBIO data acquisition software v11.1 (FortéBIO, Pall Corporation, USA).

[2] = biological target: A110 (SEQ ID NOs: 41 & 17) (Homo sapiens (Human), UniProt P0DOX7 1-214); experiment: as above
Experimental: as §1

B1: human Activin A (ligand)
chain: GLECDGKVNICCKKQFFVSFKDIGWNDWIIAPSGYHANYCEGECPSHIAGTSGSSLSFHSTVINHYRMRGHSPFANLKSCCVPTKLRPMSMLYYDDGQNIIKKDIQNMIVEECGCS
modifications: Activin A is a disulfide-linked homodimer of two identical inhibin beta A chains. The chain is given once.
Question: What does the source list for B1?
Answer: Kd [1]: ~0.52 nM; Kd [2]: ~0.16 nM
